Kd data for 1 molecule are collected here from CN111138537A (REYOUNG (SUZHOU) BIOPHARMACEUTICAL CO LTD, dated 2020).

In the test the target is T1, 人血清白蛋白 (human, UniProt P02768 25-609).
T1 construct: also called HSA; human serum albumin
Description: SPR (Biacore T200), HSA amine-coupled to CM5 chip, NB22 as analyte.

As usually defined, the Kd is the equilibrium constant for the complex coming apart. A low value points to tighter binding.

B1: 单域抗体NB22 (VHH)
VHH: QVQLQESGGGSVQAGGSLRLSCAASAYTYSTTCMAWFRQAPGKEREKVATITTGGTYPYYADSVKGRFTISQDNAKNTVYLQMNSLKPEDTAMYYCAADASWGCRLSGSWSTVYNYWGQGTQVTVSS
notes: Camel (Bactrian) VHH from a phage display library; expressed in E. coli periplasm with a C-terminal 6x His tag and nickel-purified; also called 抗人血清白蛋白单域抗体
B1 registered a Kd of 0.683 nM.
